The record followed here is PMC11417369, “DNA sequence and chromatin differentiate sequence-specific transcription factor binding in the human malaria parasite Plasmodium falciparum”.

Experiment in all cases: gcPBM; about 25 ug protein; PBS, 1% milk, 0.2 mg/ml BSA, salmon testes DNA, 0.03% Triton X-100
Holding throughout (conditions): tags: N-terminal GST (pGEX-4T-1), kept; label: surface-attached array probe

The target of one series is T1, PF3D7_0420300 D1 (Plasmodium falciparum, UniProt Q8I1N6 1956-2015).
T1 sequence: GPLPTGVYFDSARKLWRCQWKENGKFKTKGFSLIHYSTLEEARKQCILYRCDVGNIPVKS

The next series deals with T2, AP2-HC D1 (Plasmodium falciparum, UniProt Q8IKR9 1316-1374).
T2 sequence: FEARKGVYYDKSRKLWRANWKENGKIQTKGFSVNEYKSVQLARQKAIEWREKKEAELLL

The target in the next series is T3, AP2-LT D1 (Plasmodium falciparum, UniProt Q8IAM1 2520-2577).
T3 sequence: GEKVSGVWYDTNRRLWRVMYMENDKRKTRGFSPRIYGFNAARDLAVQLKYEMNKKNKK

B1: CACACA_negctrl_site1564 (dsDNA)
DNA 1: AAAATGTCCCGTAGAAAATAAATTTATTACGCAATA
DNA 2: TATTGCGTAATAAATTTATTTTCTACGGGACATTTT
In the case of B1, the binding signal is 9.06 ln median PBM intensity, better of two orientations with PF3D7_0420300 D1 and 9.41 ln median PBM intensity, better of two orientations with AP2-HC D1.

B2: CACACA_negctrl_site49 (dsDNA)
DNA 1: AATATATAAATATATATAAATAAATATATATATAAA
DNA 2: TTTATATATATATTTATTTATATATATTTATATATT
B2: the binding signal was 8.92 ln median PBM intensity, better of two orientations with PF3D7_0420300 D1 and 9.5 ln median PBM intensity, better of two orientations with AP2-HC D1.

B3: CACACA_negctrl_site1096 (dsDNA)
DNA 1: ATTATATTCTTTACTACCAATTAGTAGAAAATAAAA
DNA 2: TTTTATTTTCTACTAATTGGTAGTAAAGAATATAAT
With B3, the binding signal in the series with PF3D7_0420300 D1 was 8.9 ln median PBM intensity, better of two orientations; with AP2-HC D1, 9.31 ln median PBM intensity, better of two orientations.

B4: CACACA_site4553 (dsDNA)
DNA 1: AAAAAAAGATTATACACACACATATATAAACATACA
DNA 2: TGTATGTTTATATATGTGTGTGTATAATCTTTTTTT
For B4, the binding signal with PF3D7_0420300 D1 is 10.1 ln median PBM intensity, better of two orientations; in the series with AP2-HC D1 it was 10.7 ln median PBM intensity, better of two orientations.

B5: CACACA_site8345 (dsDNA)
DNA 1: AATACCCAAGGACACACACACACATATATATATATA
DNA 2: TATATATATATATGTGTGTGTGTGTCCTTGGGTATT
Regarding B5, the binding signal was 11.8 ln median PBM intensity, better of two orientations in the series with AP2-HC D1 and 10.8 ln median PBM intensity, better of two orientations with AP2-LT D1.

B6: CACACA_site6215 (dsDNA)
DNA 1: AAAAAAAAAAGACACACACACACATAAATATAAATA
DNA 2: TATTTATATTTATGTGTGTGTGTGTCTTTTTTTTTT
For the molecule B6, the binding signal with PF3D7_0420300 D1 is 10.3 ln median PBM intensity, better of two orientations; with AP2-HC D1 it was 12.2 ln median PBM intensity, better of two orientations.

B7: CACACA_site2305 (dsDNA)
DNA 1: TTCCCCCCCAGACACACACACACATACATACCACAT
DNA 2: ATGTGGTATGTATGTGTGTGTGTGTCTGGGGGGGAA
Take B7: the binding signal in the series with PF3D7_0420300 D1 is 10.4 ln median PBM intensity, better of two orientations; with AP2-HC D1, 12.1 ln median PBM intensity, better of two orientations.

B8: CACACA_site365 (dsDNA)
DNA 1: CACCCCCACAGACACACACACACACCCACATATATA
DNA 2: TATATATGTGGGTGTGTGTGTGTGTCTGTGGGGGTG
B8: the binding signal was 10.4 ln median PBM intensity, better of two orientations with PF3D7_0420300 D1 and 10.8 ln median PBM intensity, better of two orientations with AP2-HC D1.

B9: CACACA_site2431 (dsDNA)
DNA 1: AACAAACACAGACACACACACACACCCAAATGATTA
DNA 2: TAATCATTTGGGTGTGTGTGTGTGTCTGTGTTTGTT
On to B9, for which the binding signal was 11.7 ln median PBM intensity, better of two orientations in the series with AP2-HC D1 and 10.8 ln median PBM intensity, better of two orientations with AP2-LT D1.

B10: CACACA_site4721 (dsDNA)
DNA 1: AACATTATAGGACACACACACACATATATATATATA
DNA 2: TATATATATATATGTGTGTGTGTGTCCTATAATGTT
For B10, the binding signal with AP2-HC D1 is 11.9 ln median PBM intensity, better of two orientations; in the series with AP2-LT D1, 10.7 ln median PBM intensity, better of two orientations.

B11: CACACA_negctrl_site1139 (dsDNA)
DNA 1: ATTTTTTTTTTTTTTATTCCCCTTTCGAAAAAAACC
DNA 2: GGTTTTTTTCGAAAGGGGAATAAAAAAAAAAAAAAT
B11: the binding signal with PF3D7_0420300 D1 was 9.05 ln median PBM intensity, better of two orientations; in the series with AP2-HC D1 it was 9.47 ln median PBM intensity, better of two orientations.

B12: CACACA_site7754 (dsDNA)
DNA 1: TAAAATAAAACAAACACACACACACGGACACAAAAA
DNA 2: TTTTTGTGTCCGTGTGTGTGTGTTTGTTTTATTTTA
Take B12: the binding signal in the series with PF3D7_0420300 D1 is 10.4 ln median PBM intensity, better of two orientations; in the series with AP2-HC D1, 11.9 ln median PBM intensity, better of two orientations.

B13: CACACA_site7658 (dsDNA)
DNA 1: AATAAAAAGGAACACACACACACACGGATATAAATA
DNA 2: TATTTATATCCGTGTGTGTGTGTGTTCCTTTTTATT
As to B13, the binding signal in the series with PF3D7_0420300 D1 was 10.5 ln median PBM intensity, better of two orientations; with AP2-HC D1, 11.7 ln median PBM intensity, better of two orientations.

B14: CACACA_site362 (dsDNA)
DNA 1: CACCCACACCAACACACACACATATATATATATATA
DNA 2: TATATATATATATATGTGTGTGTGTTGGTGTGGGTG
Take B14: the binding signal is 11.7 ln median PBM intensity, better of two orientations with AP2-HC D1 and 10.8 ln median PBM intensity, better of two orientations in the series with AP2-LT D1.
